Experimental findings from patent US20200087373A1 (UNIVERSITY OF COPENHAGEN, published 2020) are described below.

For assay [1], the target named is human GIP receptor (human) (UniProt P48546). In words: 125I-hGIP competition binding on hGIPR COS-7 cells; fold in affinity, paired, reference taken as GIP(3-30)NH2.
The target is the same in assay [2]. In words: 125I-hGIP(1-42) competition binding, COS-7 cells expressing human GIPR.
Assay [3] has the same target. In words: 125I-hGIP(1-42) competition binding, COS-7 cells expressing human GIPR, 2% HSA.
For assay [4] the target is unchanged. Description: cell-based or functional assay.
Assay [5] shares this target. Description: 125I-hGIP(1-42) competition binding, COS-7 cells expressing human GIPR, 0.1% casein (no HSA).
Assay [6] shares this target. Description: ratio of IC50 with 2% HSA to IC50 with 0.1% casein, 125I-hGIP competition binding on hGIPR COS-7 cells.
The target in assay [7] is T1, human GIP receptor (human, UniProt P48546 22-466).
T1 construct: whole, on cells; Transiently transfected COS-7 cells expressing the human GIP receptor; also called hGIPR
T1 sequence (looked up): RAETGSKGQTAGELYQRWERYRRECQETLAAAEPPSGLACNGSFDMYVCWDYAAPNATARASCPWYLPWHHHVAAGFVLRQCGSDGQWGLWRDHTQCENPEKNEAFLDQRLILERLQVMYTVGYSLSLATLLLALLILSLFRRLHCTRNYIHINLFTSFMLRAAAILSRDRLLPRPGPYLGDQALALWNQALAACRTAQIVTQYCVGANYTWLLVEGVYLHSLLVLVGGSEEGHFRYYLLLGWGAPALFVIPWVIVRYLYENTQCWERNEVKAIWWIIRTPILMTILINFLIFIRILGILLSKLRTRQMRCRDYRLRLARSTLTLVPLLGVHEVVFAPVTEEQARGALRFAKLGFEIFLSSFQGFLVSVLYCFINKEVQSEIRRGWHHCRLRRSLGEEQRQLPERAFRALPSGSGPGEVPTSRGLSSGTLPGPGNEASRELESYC
The description is as above.
Procedure: (§1) After incubation, the cells were washed twice in ice-cold binding buffer (+/−2% HSA) and lysed using 200 mM NaOH with 1% SDS for 30 min. Nonspecific binding was determined as the binding of radioactive ligand to untransfected cells.

For assay [8], the target named is T1, human GIP receptor. Description: 125I-hGIP(1-42) competition binding, COS-7 cells expressing human GIPR, 0.1% casein (no HSA).
Procedure: as §1
The target of assay [9] is T1, human GIP receptor. Description: 125I-hGIP competition binding on hGIPR COS-7 cells; fold in affinity, paired, reference taken as GIP(3-30)NH2.
Procedure: as §1
Assay [10] deals with T1, human GIP receptor. In words: 125I-hGIP(1-42) competition binding, COS-7 cells expressing human GIPR, 2% HSA.
Procedure: as §1
The target in assay [11] is T1, human GIP receptor. In words: cell-based or functional assay.
Assay [12] deals with T1, human GIP receptor. Description: 125I-hGIP(1-42) competition binding, COS-7 cells expressing human GIPR.
Procedure: as §1

The term IC50 denotes the midpoint of a concentration-inhibition curve. Low values mean higher potency, high ones lower potency.

Ends that are not written are not given here. * marks the point of attachment. C16 diacid = O=C(O)CCCCCCCCCCCCCCC(=O)*; Stearoyl = CCCCCCCCCCCCCCCCCC(=O)*; Palmitoyl = CCCCCCCCCCCCCCCC(=O)*; Myristoyl = CCCCCCCCCCCCCC(=O)*; Lauroyl = CCCCCCCCCCCC(=O)*

The molecule “AT162, second row of Table 3b (H18K; K30R, C16 at position 16) (peptide)” showed a fold (paired) in [1] of 9.2 fold. In addition, the IC50 was determined as 213 nM in [2], 705 nM in assay [3] and 213 nM in [5]. The molecule also came in with a cAMP - antagonisme IC50 in [4] of 213 nM. Also, the cAMP - antagonisme fold (paired) in assay [4] is 4.1 fold. The Fold change (IC50 2% HSA / IC50 0.1% casein) in assay [6] came to 3.3 fold.

B1: AT116 [hGIP(3-30)NH2-C12/18] (H18K) (peptide)
peptide: EGTFISDYSIAMDKIK(Lauroyl)QQDFVNWLLAQK-NH2
modifications: N-terminus assumed
SMILES: CCCCCCCCCCCC(=O)NCCCC[C@H](NC(=O)[C@@H](NC(=O)[C@H](CCCCN)NC(=O)[C@H](CC(=O)O)NC(=O)[C@H](CCSC)NC(=O)[C@H](C)NC(=O)[C@@H](NC(=O)[C@H](CO)NC(=O)[C@H](Cc1ccc(O)cc1)NC(=O)[C@H](CC(=O)O)NC(=O)[C@H](CO)NC(=O)[C@@H](NC(=O)[C@H](Cc1ccccc1)NC(=O)[C@@H](NC(=O)CNC(=O)[C@@H](N)CCC(=O)O)[C@@H](C)O)[C@@H](C)CC)[C@@H](C)CC)[C@@H](C)CC)C(=O)N[C@@H](CCC(N)=O)C(=O)N[C@@H](CCC(N)=O)C(=O)N[C@@H](CC(=O)O)C(=O)N[C@@H](Cc1ccccc1)C(=O)N[C@H](C(=O)N[C@@H](CC(N)=O)C(=O)N[C@@H](Cc1c[nH]c2ccccc12)C(=O)N[C@@H](CC(C)C)C(=O)N[C@@H](CC(C)C)C(=O)N[C@@H](C)C(=O)N[C@@H](CCC(N)=O)C(=O)N[C@@H](CCCCN)C(N)=O)C(C)C
As for B1, the “Fold change (IC50 2% HSA / IC50 0.1% casein)” value with human GIP receptor [7] turned out to be 5.2 fold. For the same molecule, the half-maximal inhibitory concentration (IC50) with human GIP receptor [8] came out at 61.5 nM; with human GIP receptor [10] it was 321 nM; in the assay with human GIP receptor [12], 71.2 nM. The “fold (paired)” value with human GIP receptor [9] was found to be 5 fold. For the same molecule, the “cAMP - antagonisme IC50” value with human GIP receptor [11] amounted to 11.9 nM. Further, the “cAMP - antagonisme fold (paired)” value with human GIP receptor [11] stood at 1.2 fold.

B2: AT159 [hGIP(3-30)NH2[K16R; H18K; K30R]-C16diacid/18] (peptide)
peptide: EGTFISDYSIAMDRIK(C16 diacid)QQDFVNWLLAQR-NH2
modifications: N-terminus assumed
SMILES: CC[C@H](C)[C@H](NC(=O)[C@H](CO)NC(=O)[C@H](Cc1ccc(O)cc1)NC(=O)[C@H](CC(=O)O)NC(=O)[C@H](CO)NC(=O)[C@@H](NC(=O)[C@H](Cc1ccccc1)NC(=O)[C@@H](NC(=O)CNC(=O)[C@@H](N)CCC(=O)O)[C@@H](C)O)[C@@H](C)CC)C(=O)N[C@@H](C)C(=O)N[C@@H](CCSC)C(=O)N[C@@H](CC(=O)O)C(=O)N[C@@H](CCCNC(=N)N)C(=O)N[C@H](C(=O)N[C@@H](CCCCNC(=O)CCCCCCCCCCCCCCC(=O)O)C(=O)N[C@@H](CCC(N)=O)C(=O)N[C@@H](CCC(N)=O)C(=O)N[C@@H](CC(=O)O)C(=O)N[C@@H](Cc1ccccc1)C(=O)N[C@H](C(=O)N[C@@H](CC(N)=O)C(=O)N[C@@H](Cc1c[nH]c2ccccc12)C(=O)N[C@@H](CC(C)C)C(=O)N[C@@H](CC(C)C)C(=O)N[C@@H](C)C(=O)N[C@@H](CCC(N)=O)C(=O)N[C@@H](CCCNC(=N)N)C(N)=O)C(C)C)[C@@H](C)CC
B2: the “Fold change (IC50 2% HSA / IC50 0.1% casein)” value in the assay with human GIP receptor [7] amounted to 0.8 fold. The half-maximal inhibitory concentration (IC50) with human GIP receptor [8] amounted to 25 nM; with human GIP receptor [10] it was 20 nM; with human GIP receptor [12], 25 nM. In the assay with human GIP receptor [9], the “fold (paired)” value was 3 fold. For the same molecule, the “cAMP - antagonisme IC50” value in the assay with human GIP receptor [11] was determined as 5.6 nM. For the same molecule, the “cAMP - antagonisme fold (paired)” value with human GIP receptor [11] is 0.1 fold.

B3: AT158 [hGIP(3-30)NH2[H18K]-C16diacid/18] (peptide)
peptide: EGTFISDYSIAMDKIK(C16 diacid)QQDFVNWLLAQK-NH2
modifications: N-terminus assumed
SMILES: CC[C@H](C)[C@H](NC(=O)[C@H](CO)NC(=O)[C@H](Cc1ccc(O)cc1)NC(=O)[C@H](CC(=O)O)NC(=O)[C@H](CO)NC(=O)[C@@H](NC(=O)[C@H](Cc1ccccc1)NC(=O)[C@@H](NC(=O)CNC(=O)[C@@H](N)CCC(=O)O)[C@@H](C)O)[C@@H](C)CC)C(=O)N[C@@H](C)C(=O)N[C@@H](CCSC)C(=O)N[C@@H](CC(=O)O)C(=O)N[C@@H](CCCCN)C(=O)N[C@H](C(=O)N[C@@H](CCCCNC(=O)CCCCCCCCCCCCCCC(=O)O)C(=O)N[C@@H](CCC(N)=O)C(=O)N[C@@H](CCC(N)=O)C(=O)N[C@@H](CC(=O)O)C(=O)N[C@@H](Cc1ccccc1)C(=O)N[C@H](C(=O)N[C@@H](CC(N)=O)C(=O)N[C@@H](Cc1c[nH]c2ccccc12)C(=O)N[C@@H](CC(C)C)C(=O)N[C@@H](CC(C)C)C(=O)N[C@@H](C)C(=O)N[C@@H](CCC(N)=O)C(=O)N[C@@H](CCCCN)C(N)=O)C(C)C)[C@@H](C)CC
On to B3, for which, in the assay with human GIP receptor [7], the “Fold change (IC50 2% HSA / IC50 0.1% casein)” value amounted to 2 fold. Besides, the IC50 came to 7.9 nM with human GIP receptor [8], 16 nM with human GIP receptor [10] and 7.9 nM with human GIP receptor [12]. In the assay with human GIP receptor [9], the “fold (paired)” value came out at 1 fold. In the assay with human GIP receptor [11], the “cAMP - antagonisme IC50” value turned out to be 4.5 nM. Besides, the “cAMP - antagonisme fold (paired)” value with human GIP receptor [11] was found to be 0.1 fold.

B4: AT143 [hGIP(3-30)NH2[M14L; H18K]-C16/18] (peptide)
peptide: EGTFISDYSIALDKIK(Palmitoyl)QQDFVNWLLAQK-NH2
modifications: N-terminus assumed
SMILES: CCCCCCCCCCCCCCCC(=O)NCCCC[C@H](NC(=O)[C@@H](NC(=O)[C@H](CCCCN)NC(=O)[C@H](CC(=O)O)NC(=O)[C@H](CC(C)C)NC(=O)[C@H](C)NC(=O)[C@@H](NC(=O)[C@H](CO)NC(=O)[C@H](Cc1ccc(O)cc1)NC(=O)[C@H](CC(=O)O)NC(=O)[C@H](CO)NC(=O)[C@@H](NC(=O)[C@H](Cc1ccccc1)NC(=O)[C@@H](NC(=O)CNC(=O)[C@@H](N)CCC(=O)O)[C@@H](C)O)[C@@H](C)CC)[C@@H](C)CC)[C@@H](C)CC)C(=O)N[C@@H](CCC(N)=O)C(=O)N[C@@H](CCC(N)=O)C(=O)N[C@@H](CC(=O)O)C(=O)N[C@@H](Cc1ccccc1)C(=O)N[C@H](C(=O)N[C@@H](CC(N)=O)C(=O)N[C@@H](Cc1c[nH]c2ccccc12)C(=O)N[C@@H](CC(C)C)C(=O)N[C@@H](CC(C)C)C(=O)N[C@@H](C)C(=O)N[C@@H](CCC(N)=O)C(=O)N[C@@H](CCCCN)C(N)=O)C(C)C
Turning to B4, the “Fold change (IC50 2% HSA / IC50 0.1% casein)” value in the assay with human GIP receptor [7] was found to be 1.2 fold. In addition, the IC50 with human GIP receptor [8] amounted to 86.1 nM; with human GIP receptor [10] it was 105 nM; with human GIP receptor [12] it was 86.1 nM. Moreover, the “fold (paired)” value with human GIP receptor [9] turned out to be 11 fold. The “cAMP - antagonisme IC50” value in the assay with human GIP receptor [11] is 13.3 nM. In addition, the “cAMP - antagonisme fold (paired)” value in the assay with human GIP receptor [11] was 0.3 fold.

B5: AT160 [hGIP(3-30)NH2[H18K]-C18/18] (peptide)
peptide: EGTFISDYSIAMDKIK(Stearoyl)QQDFVNWLLAQK-NH2
modifications: N-terminus assumed
SMILES: CCCCCCCCCCCCCCCCCC(=O)NCCCC[C@H](NC(=O)[C@@H](NC(=O)[C@H](CCCCN)NC(=O)[C@H](CC(=O)O)NC(=O)[C@H](CCSC)NC(=O)[C@H](C)NC(=O)[C@@H](NC(=O)[C@H](CO)NC(=O)[C@H](Cc1ccc(O)cc1)NC(=O)[C@H](CC(=O)O)NC(=O)[C@H](CO)NC(=O)[C@@H](NC(=O)[C@H](Cc1ccccc1)NC(=O)[C@@H](NC(=O)CNC(=O)[C@@H](N)CCC(=O)O)[C@@H](C)O)[C@@H](C)CC)[C@@H](C)CC)[C@@H](C)CC)C(=O)N[C@@H](CCC(N)=O)C(=O)N[C@@H](CCC(N)=O)C(=O)N[C@@H](CC(=O)O)C(=O)N[C@@H](Cc1ccccc1)C(=O)N[C@H](C(=O)N[C@@H](CC(N)=O)C(=O)N[C@@H](Cc1c[nH]c2ccccc12)C(=O)N[C@@H](CC(C)C)C(=O)N[C@@H](CC(C)C)C(=O)N[C@@H](C)C(=O)N[C@@H](CCC(N)=O)C(=O)N[C@@H](CCCCN)C(N)=O)C(C)C
In the case of B5, the “Fold change (IC50 2% HSA / IC50 0.1% casein)” value in the assay with human GIP receptor [7] came out at 3.6 fold. Moreover, the concentration for half-maximal inhibition (IC50) with human GIP receptor [8] turned out to be 48.8 nM; with human GIP receptor [10] it was 175 nM; with human GIP receptor [12] it was 48.8 nM. Further, the “fold (paired)” value in the assay with human GIP receptor [9] was 6 fold. The “cAMP - antagonisme IC50” value with human GIP receptor [11] turned out to be 36.1 nM. For the same molecule, in the assay with human GIP receptor [11], the “cAMP - antagonisme fold (paired)” value was determined as 0.7 fold.

B6: AT111 [hGIP(3-30)NH2-C14/16] (peptide)
peptide: EGTFISDYSIAMDK(Myristoyl)IHQQDFVNWLLAQK-NH2
As to B6, the “Fold change (IC50 2% HSA / IC50 0.1% casein)” value in the assay with human GIP receptor [7] turned out to be 5.1 fold. For the same molecule, the 50% inhibitory concentration (IC50) turned out to be 407 nM with human GIP receptor [8], 2090 nM with human GIP receptor [10] and 261 nM with human GIP receptor [12]. For the same molecule, the “fold (paired)” value with human GIP receptor [9] amounted to 31 fold. Besides, the “cAMP - antagonisme IC50” value with human GIP receptor [11] is 21.9 nM. For the same molecule, the “cAMP - antagonisme fold (paired)” value with human GIP receptor [11] came to 3.3 fold.
